Non-standard residues stand in square brackets, D forms with d. No end group written: not given here. *: point of attachment. Phe(4-I) = N[C@@H](Cc1ccc(I)cc1)C(=O)O; Fmoc = O=C(OCC1c2ccccc2-c2ccccc21)*
Substrate: FBS (fetal bovine serum) proteins
Test: FBS protein binding assay: 25 uM agent in 100% FBS, Amicon 10 K cutoff ultrafiltration, fluorescence of fractions

Binder | percent bound [%]
Fmoc-[Phe(4-I)]LPNSNHIK(IRDye800)QGL [4Iphf-HN18-IR800] | 70
TSPLNIHNGQK(IRDye800)L [HN1-IR800] | 52

— US20200254116A1
